The values that follow are results of earlier work, collected in article PMC12203939.

The target of data set [1] is PKA regulatory subunit RII (Homo sapiens) (UniProt P13861).
Data set [2] addresses PKA regulatory subunit RI (Homo sapiens) (UniProt P10644).

Chain of OPA1 (O60313 195-960): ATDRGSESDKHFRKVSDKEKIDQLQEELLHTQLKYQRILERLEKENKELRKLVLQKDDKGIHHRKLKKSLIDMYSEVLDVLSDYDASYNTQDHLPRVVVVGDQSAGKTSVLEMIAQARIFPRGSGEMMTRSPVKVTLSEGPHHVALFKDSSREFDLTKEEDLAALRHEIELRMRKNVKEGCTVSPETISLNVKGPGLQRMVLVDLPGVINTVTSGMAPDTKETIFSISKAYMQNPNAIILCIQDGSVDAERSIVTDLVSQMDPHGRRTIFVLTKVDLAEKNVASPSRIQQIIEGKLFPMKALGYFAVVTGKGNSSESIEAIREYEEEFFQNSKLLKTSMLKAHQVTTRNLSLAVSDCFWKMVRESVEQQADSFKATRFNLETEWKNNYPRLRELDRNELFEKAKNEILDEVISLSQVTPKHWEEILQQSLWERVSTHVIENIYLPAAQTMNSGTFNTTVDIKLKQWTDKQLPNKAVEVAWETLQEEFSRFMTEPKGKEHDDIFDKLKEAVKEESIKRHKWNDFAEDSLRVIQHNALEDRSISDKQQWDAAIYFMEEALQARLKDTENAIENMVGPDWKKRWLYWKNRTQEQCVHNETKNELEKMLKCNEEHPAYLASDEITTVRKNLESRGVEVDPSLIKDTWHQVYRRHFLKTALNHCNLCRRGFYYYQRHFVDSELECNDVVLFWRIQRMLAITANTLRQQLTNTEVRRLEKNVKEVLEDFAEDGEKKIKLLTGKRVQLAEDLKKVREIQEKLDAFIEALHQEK
Chain of PKA regulatory subunit RI (Homo sapiens) (P10644 whole entry): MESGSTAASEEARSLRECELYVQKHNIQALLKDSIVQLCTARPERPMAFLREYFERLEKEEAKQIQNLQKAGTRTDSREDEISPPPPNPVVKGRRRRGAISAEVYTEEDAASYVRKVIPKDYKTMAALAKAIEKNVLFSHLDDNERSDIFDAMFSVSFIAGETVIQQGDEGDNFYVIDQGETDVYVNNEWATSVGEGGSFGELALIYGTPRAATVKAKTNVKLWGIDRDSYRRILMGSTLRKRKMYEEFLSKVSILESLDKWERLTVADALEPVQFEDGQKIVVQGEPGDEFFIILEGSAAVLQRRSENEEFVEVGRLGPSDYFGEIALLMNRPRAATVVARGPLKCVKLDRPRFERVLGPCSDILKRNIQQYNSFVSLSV
Chain of PKA regulatory subunit RII (Homo sapiens) (P13861 2-404): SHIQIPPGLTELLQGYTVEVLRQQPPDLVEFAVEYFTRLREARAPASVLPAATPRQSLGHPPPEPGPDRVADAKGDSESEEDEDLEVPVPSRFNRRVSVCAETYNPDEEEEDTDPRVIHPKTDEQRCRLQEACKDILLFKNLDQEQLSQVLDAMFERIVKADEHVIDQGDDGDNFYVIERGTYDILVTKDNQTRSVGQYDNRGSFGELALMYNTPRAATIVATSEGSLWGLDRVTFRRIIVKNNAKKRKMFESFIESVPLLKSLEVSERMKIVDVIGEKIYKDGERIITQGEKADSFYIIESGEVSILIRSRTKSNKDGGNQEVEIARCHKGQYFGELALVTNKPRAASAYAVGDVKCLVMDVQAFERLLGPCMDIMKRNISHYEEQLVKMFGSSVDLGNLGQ

Consider OPA1 (from UniProt O60313), for which the Kd in data set [1] is 14 nM; in data set [2], 12.5 nM.

Usually Kd stands for the constant that tells how readily two partners part at equilibrium.
